Assay results from the supplement of paper PMC10126150.
± gives the standard deviation of the averaged measurements.

System: ATP
Experiment: switch fluorescence ratio, 500 uM ATP over buffer (Cy3 cluster intensity, sum of 5 cycles each) (fold (ratio)); higher = stronger signal-on switching upon ATP binding; sequences stand for … in TCGTCGGCAGCGTCAGATGTGTATAAGAGACAGTTTTTTTTTTTTTTTTTTTTTTTTT…TC
Conditions: aptamer strand: ATP DNA aptamer (quencher-CACCTGGGGGAGTATTGCGGAGGAAGG + anchor), 100 nM annealed; ATP concentration: 500 uM
How it was run: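 The fluorescence ratio divides summed target-cycle Cy3 intensity by summed buffer-cycle Cy3 intensity for each cluster and is averaged per switch-domain sequence. Cy3-labelled switching-strand clusters on a modified Illumina MiSeq flow-cell were annealed to 100 nM quencher-labelled ATP aptamer, then imaged in selection buffer and again after 15 min with 500 uM ATP at 22 °C. Five such cycles were run, with NaOH stripping and re-annealing between them, and clusters outside 100-1000 RFU were excluded.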
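Further: ATP exposure 15 min at 22 °C before imaging.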

Which switch fluorescence ratio does the source give for CGGCAGCCGG here?
The switch fluorescence ratio was 1.01 ± 0.062.

Which switch fluorescence ratio does the source give for TTGAACGAGC here?
The switch fluorescence ratio was 0.99 ± 0.04.

For GTGGGGTAAG, which switch fluorescence ratio is on record?
The switch fluorescence ratio was 0.987 ± 0.014.

With GAAGTAACAG as the sequence, how does the switch fluorescence ratio read?
The switch fluorescence ratio was 1.03 ± 0.027.

How did the switch fluorescence ratio turn out when TTGAGGCGAT was run?
The switch fluorescence ratio was 1.23 ± 0.22.

How did the switch fluorescence ratio turn out when ATTAGGGTTC was run?
The switch fluorescence ratio was 1.44 ± 0.47.

With GGAGGATGAG as the sequence, how does the switch fluorescence ratio read?
Its switch fluorescence ratio is 1.01 ± 0.013.

With CCACGCTCGC as the sequence, how does the switch fluorescence ratio read?
Its switch fluorescence ratio is 2.33 ± 0.21.

How did the switch fluorescence ratio turn out when TATCTGCTAC was run?
Its switch fluorescence ratio is 3.67 ± 0.7.

With AAAAGCTCCG as the sequence, how does the switch fluorescence ratio read?
Its switch fluorescence ratio is 1.05 ± 0.033.

How did the switch fluorescence ratio turn out when AGTGGGTTTC was run?
Its switch fluorescence ratio is 0.9697 ± 0.0026.

CACTGGGGGC was tested. Which switch fluorescence ratio did it give?
The switch fluorescence ratio was 1.02 ± 0.036.

With TAGATATTGG as the sequence, how does the switch fluorescence ratio read?
Its switch fluorescence ratio is 1.01 ± 0.016.

With GTTTTACTGA as the sequence, how does the switch fluorescence ratio read?
The switch fluorescence ratio was 1.03 ± 0.021.

Which switch fluorescence ratio does the source give for GAATAGGGGC here?
The switch fluorescence ratio was 0.965 ± 0.01.

With GAAGACCGGT as the sequence, how does the switch fluorescence ratio read?
Its switch fluorescence ratio is 0.985 ± 0.047.

ATTAGCTCGC was tested. Which switch fluorescence ratio did it give?
The switch fluorescence ratio was 0.97 ± 0.023.

How did the switch fluorescence ratio turn out when TGGGGCTGGT was run?
The switch fluorescence ratio was 0.99 ± 0.018.

AATGACGGTA was tested. Which switch fluorescence ratio did it give?
The switch fluorescence ratio was 1.0565 ± 0.00075.

How did the switch fluorescence ratio turn out when GGTTTTTCGC was run?
Its switch fluorescence ratio is 1.028 ± 0.0029.

For TAGGGCTGTA, which switch fluorescence ratio is on record?
Its switch fluorescence ratio is 0.993 ± 0.049.

TTAAGACTTG was tested. Which switch fluorescence ratio did it give?
Its switch fluorescence ratio is 1 ± 0.012.

With CTTGTATCGT as the sequence, how does the switch fluorescence ratio read?
The switch fluorescence ratio was 0.971 ± 0.015.

ATTGTTCTCC was tested. Which switch fluorescence ratio did it give?
Its switch fluorescence ratio is 1.04 ± 0.057.

GAGTGCATTG was tested. Which switch fluorescence ratio did it give?
The switch fluorescence ratio was 1.01 ± 0.015.

For GGTCGTCTGC, which switch fluorescence ratio is on record?
The switch fluorescence ratio was 0.984 ± 0.018.

Which switch fluorescence ratio does the source give for GGTATTATCG here?
Its switch fluorescence ratio is 0.969 ± 0.017.

TTTGGATGTG was tested. Which switch fluorescence ratio did it give?
The switch fluorescence ratio was 0.984 ± 0.032.

TGCTAGCTAT was tested. Which switch fluorescence ratio did it give?
Its switch fluorescence ratio is 1.02 ± 0.0029.

ACGGGACATT was tested. Which switch fluorescence ratio did it give?
The switch fluorescence ratio was 1.19 ± 0.033.

With GGGGGGGGGT as the sequence, how does the switch fluorescence ratio read?
Its switch fluorescence ratio is 1.01 ± 0.038.

How did the switch fluorescence ratio turn out when TTTTAATTAG was run?
Its switch fluorescence ratio is 1.01 ± 0.018.

ATCCTGGGTG was tested. Which switch fluorescence ratio did it give?
Its switch fluorescence ratio is 3.73 ± 1.5.

AGATGGGGGG was tested. Which switch fluorescence ratio did it give?
The switch fluorescence ratio was 1.02 ± 0.033.

Which switch fluorescence ratio does the source give for TATTCAAGTT here?
Its switch fluorescence ratio is 1 ± 0.024.

Which switch fluorescence ratio does the source give for TGTGCACATT here?
The switch fluorescence ratio was 1.02 ± 0.024.

TTTTTCCCCC was tested. Which switch fluorescence ratio did it give?
The switch fluorescence ratio was 1.04 ± 0.05.

For GCTCTTAGTG, which switch fluorescence ratio is on record?
Its switch fluorescence ratio is 0.9894 ± 0.0032.

For GTTTATTCGA, which switch fluorescence ratio is on record?
Its switch fluorescence ratio is 0.989 ± 0.014.

With GAGTTTAGAT as the sequence, how does the switch fluorescence ratio read?
The switch fluorescence ratio was 0.994 ± 0.018.

With ATGTCGACTA as the sequence, how does the switch fluorescence ratio read?
The switch fluorescence ratio was 1.02 ± 0.021.

How did the switch fluorescence ratio turn out when GACAGGGGCG was run?
Its switch fluorescence ratio is 1.19 ± 0.16.

For TTTTTGTGGT, which switch fluorescence ratio is on record?
Its switch fluorescence ratio is 1 ± 0.036.

For ATTTTATGAC, which switch fluorescence ratio is on record?
Its switch fluorescence ratio is 1.008 ± 0.0025.

With TTTAGGGAAA as the sequence, how does the switch fluorescence ratio read?
Its switch fluorescence ratio is 0.961 ± 0.033.

With AATGGGTACT as the sequence, how does the switch fluorescence ratio read?
The switch fluorescence ratio was 1 ± 0.015.

AAAGAATAAA was tested. Which switch fluorescence ratio did it give?
The switch fluorescence ratio was 1.022 ± 0.0089.

For TATACGGTTA, which switch fluorescence ratio is on record?
Its switch fluorescence ratio is 1.06 ± 0.022.

For TATGGGCGCG, which switch fluorescence ratio is on record?
The switch fluorescence ratio was 1.11 ± 0.23.

Which switch fluorescence ratio does the source give for GCGGTTCAGT here?
The switch fluorescence ratio was 1.0109 ± 0.00081.

How did the switch fluorescence ratio turn out when TGTAGTAGGT was run?
The switch fluorescence ratio was 1.004 ± 0.002.

How did the switch fluorescence ratio turn out when GTTCCAGTTT was run?
Its switch fluorescence ratio is 1.039 ± 0.006.

With CAAATCAGTG as the sequence, how does the switch fluorescence ratio read?
Its switch fluorescence ratio is 1.002 ± 0.01.

Which switch fluorescence ratio does the source give for TAGCTAGTAT here?
The switch fluorescence ratio was 1.63 ± 0.95.

With AGGGGGCAGC as the sequence, how does the switch fluorescence ratio read?
Its switch fluorescence ratio is 1.01 ± 0.015.

With TAAACCGATG as the sequence, how does the switch fluorescence ratio read?
Its switch fluorescence ratio is 1.21 ± 0.048.

GTGGTGTCGT was tested. Which switch fluorescence ratio did it give?
Its switch fluorescence ratio is 0.984 ± 0.016.

With TTGGCTTAGT as the sequence, how does the switch fluorescence ratio read?
The switch fluorescence ratio was 0.991 ± 0.034.

How did the switch fluorescence ratio turn out when TTTTCCAGTT was run?
Its switch fluorescence ratio is 0.998 ± 0.029.

Which switch fluorescence ratio does the source give for GTATTTCTTA here?
Its switch fluorescence ratio is 0.974 ± 0.0099.

How did the switch fluorescence ratio turn out when TATGAGAGCC was run?
Its switch fluorescence ratio is 1.02 ± 0.026.

For GTATTACAGG, which switch fluorescence ratio is on record?
Its switch fluorescence ratio is 1.04 ± 0.04.

TGCGGTTGGG was tested. Which switch fluorescence ratio did it give?
The switch fluorescence ratio was 1.022 ± 0.003.

For CGCAAAAGCA, which switch fluorescence ratio is on record?
Its switch fluorescence ratio is 1.2 ± 0.027.

GGAACTCGCT was tested. Which switch fluorescence ratio did it give?
Its switch fluorescence ratio is 1.02 ± 0.11.

AAACTTAATA was tested. Which switch fluorescence ratio did it give?
The switch fluorescence ratio was 1.14 ± 0.16.

With GGGGAGGAGT as the sequence, how does the switch fluorescence ratio read?
The switch fluorescence ratio was 1.01 ± 0.026.

TTATAAGAGT was tested. Which switch fluorescence ratio did it give?
The switch fluorescence ratio was 0.987 ± 0.025.

With GGGTGTTAAC as the sequence, how does the switch fluorescence ratio read?
Its switch fluorescence ratio is 0.981 ± 0.057.

How did the switch fluorescence ratio turn out when GGCCTAAATA was run?
The switch fluorescence ratio was 0.998 ± 0.014.

With TGAAATTTTG as the sequence, how does the switch fluorescence ratio read?
The switch fluorescence ratio was 1.01 ± 0.015.

For AAATGAGTGG, which switch fluorescence ratio is on record?
Its switch fluorescence ratio is 0.9783 ± 0.006.

With TATTGCGGCA as the sequence, how does the switch fluorescence ratio read?
The switch fluorescence ratio was 1.011 ± 0.0051.

How did the switch fluorescence ratio turn out when ATCGGGGGTT was run?
Its switch fluorescence ratio is 0.987 ± 0.023.

With GGTTTATCAG as the sequence, how does the switch fluorescence ratio read?
The switch fluorescence ratio was 0.983 ± 0.021.

How did the switch fluorescence ratio turn out when GGGATCATGT was run?
The switch fluorescence ratio was 0.98 ± 0.014.

For GGTTCGTCGT, which switch fluorescence ratio is on record?
Its switch fluorescence ratio is 0.987 ± 0.02.

Which switch fluorescence ratio does the source give for CGAGGGTGTT here?
The switch fluorescence ratio was 1.05 ± 0.077.

GGGTAGCGGG was tested. Which switch fluorescence ratio did it give?
Its switch fluorescence ratio is 1.01 ± 0.033.

CGTGGGGTTT was tested. Which switch fluorescence ratio did it give?
Its switch fluorescence ratio is 0.989 ± 0.022.

Which switch fluorescence ratio does the source give for TTTAGAACTT here?
The switch fluorescence ratio was 1.01 ± 0.077.

TGAGATAGCT was tested. Which switch fluorescence ratio did it give?
Its switch fluorescence ratio is 0.998 ± 0.033.

CAATAATTTA was tested. Which switch fluorescence ratio did it give?
The switch fluorescence ratio was 1.004 ± 0.0086.

How did the switch fluorescence ratio turn out when TCGCGCGGTA was run?
The switch fluorescence ratio was 1.007 ± 0.01.

CGTATTTGGG was tested. Which switch fluorescence ratio did it give?
The switch fluorescence ratio was 0.999 ± 0.034.
